{
  "source": "paper PMC9482650",
  "about": "“Quantitative fragmentomics allow affinity mapping of interactomes” (Nature Communications, 2022)",
  "data": [
    {"target": "T1, APBA1_1, Q02410", "T1 sequence (Q02410 651-752, limits assumed, looked up)": "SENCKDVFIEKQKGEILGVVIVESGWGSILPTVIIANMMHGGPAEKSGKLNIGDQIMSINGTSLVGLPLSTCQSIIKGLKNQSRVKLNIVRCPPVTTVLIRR", "assay": "holdup assay", "design": "key: below the threshold = too weak to quantify, mostly under pKd 3.1 to 4", "details": "plain residues with an end cap or a label only (N-terminal biotin on a linker: ado-ado)", "values": [
      {"binder": "SGDGKTSVWI", "note": "[GJC1, P36383]", "pKd": 3.69}
    ]},
    {"target": "T2, APBA1_2, Q02410", "T2 sequence (Q02410 742-832, limits assumed, looked up)": "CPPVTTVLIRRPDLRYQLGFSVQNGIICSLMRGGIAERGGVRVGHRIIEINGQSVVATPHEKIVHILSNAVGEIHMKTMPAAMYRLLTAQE", "assay": "holdup assay", "design": "key: below the threshold = too weak to quantify, mostly under pKd 3.1 to 4", "details": "plain residues with an end cap or a label only (N-terminal biotin on a linker: ado-ado)", "values": [
      {"binder": "SGDGKTSVWI", "note": "[GJC1, P36383]", "pKd": 4.44}
    ]},
    {"target": "T3, ARHGAP21, Q5T5U3", "T3 sequence (Q5T5U3 45-169, limits assumed, looked up)": "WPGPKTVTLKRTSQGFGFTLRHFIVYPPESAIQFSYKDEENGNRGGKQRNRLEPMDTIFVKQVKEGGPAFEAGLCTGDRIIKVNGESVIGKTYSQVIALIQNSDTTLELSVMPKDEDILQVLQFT", "assay": "holdup assay", "design": "key: below the threshold = too weak to quantify, mostly under pKd 3.1 to 4", "details": "plain residues with an end cap or a label only (N-terminal biotin on a linker: ado-ado)", "values": [
      {"binder": "SGDGKTSVWI", "note": "[GJC1, P36383]", "pKd": 3.58}
    ]},
    {"target": "T4, ARHGEF11, O15085", "T4 sequence (O15085 42-136, limits assumed, looked up)": "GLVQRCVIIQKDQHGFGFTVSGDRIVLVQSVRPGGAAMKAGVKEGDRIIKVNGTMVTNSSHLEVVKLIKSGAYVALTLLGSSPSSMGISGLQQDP", "assay": "holdup assay", "design": "key: below the threshold = too weak to quantify, mostly under pKd 3.1 to 4", "details": "plain residues with an end cap or a label only (N-terminal biotin on a linker: ado-ado)", "values": [
      {"binder": "SGDGKTSVWI", "note": "[GJC1, P36383]", "pKd": 3.61}
    ]},
    {"target": "DLG2_3, Q15700", "assay": "holdup assay", "design": "key: below the threshold = too weak to quantify, mostly under pKd 3.1 to 4", "details": "plain residues with an end cap or a label only (N-terminal biotin on a linker: ado-ado)", "values": [
      {"binder": "SGDGKTSVWI", "note": "[GJC1, P36383]", "pKd": 3.83}
    ]},
    {"target": "DLG4_1, P78352", "sequence (P78352 62-152)": "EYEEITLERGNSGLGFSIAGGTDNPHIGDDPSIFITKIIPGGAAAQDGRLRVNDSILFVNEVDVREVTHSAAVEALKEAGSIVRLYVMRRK", "assay": "holdup assay", "design": "key: below the threshold = too weak to quantify, mostly under pKd 3.1 to 4", "details": "plain residues with an end cap or a label only (N-terminal biotin on a linker: ado-ado)", "values": [
      {"binder": "SGDGKTSVWI", "note": "[GJC1, P36383]", "pKd": "below the threshold"}
    ]},
    {"target": "FRMPD2_1, Q68DX3", "sequence (Q68DX3 770-861)": "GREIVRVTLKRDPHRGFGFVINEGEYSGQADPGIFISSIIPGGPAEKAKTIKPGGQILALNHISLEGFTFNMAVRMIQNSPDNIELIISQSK", "assay": "holdup assay", "design": "key: below the threshold = too weak to quantify, mostly under pKd 3.1 to 4", "details": "plain residues with an end cap or a label only (N-terminal biotin on a linker: ado-ado)", "values": [
      {"binder": "SGDGKTSVWI", "note": "[GJC1, P36383]", "pKd": 3.71}
    ]},
    {"target": "FRMPD2_2, Q68DX3", "sequence (Q68DX3 944-1038)": "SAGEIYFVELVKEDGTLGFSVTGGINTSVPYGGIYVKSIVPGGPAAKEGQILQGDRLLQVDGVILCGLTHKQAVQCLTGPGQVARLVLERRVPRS", "assay": "holdup assay", "design": "key: below the threshold = too weak to quantify, mostly under pKd 3.1 to 4", "details": "plain residues with an end cap or a label only (N-terminal biotin on a linker: ado-ado)", "values": [
      {"binder": "SGDGKTSVWI", "note": "[GJC1, P36383]", "pKd": "below the threshold"}
    ]},
    {"target": "GRID2IP_1, A4D2P6", "sequence (A4D2P6 1-87)": "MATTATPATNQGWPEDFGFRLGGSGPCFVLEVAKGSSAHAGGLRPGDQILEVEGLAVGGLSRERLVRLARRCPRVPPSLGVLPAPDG", "assay": "holdup assay", "design": "key: below the threshold = too weak to quantify, mostly under pKd 3.1 to 4", "details": "plain residues with an end cap or a label only (N-terminal biotin on a linker: ado-ado)", "values": [
      {"binder": "SGDGKTSVWI", "note": "[GJC1, P36383]", "pKd": "below the threshold"}
    ]},
    {"target": "Inadl_2, Q8NI35", "sequence (Q8NI35 238-335)": "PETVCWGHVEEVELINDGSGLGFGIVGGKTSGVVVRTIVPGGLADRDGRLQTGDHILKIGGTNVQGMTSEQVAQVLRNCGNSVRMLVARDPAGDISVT", "assay": "holdup assay", "design": "key: below the threshold = too weak to quantify, mostly under pKd 3.1 to 4", "details": "plain residues with an end cap or a label only (N-terminal biotin on a linker: ado-ado)", "values": [
      {"binder": "SGDGKTSVWI", "note": "[GJC1, P36383]", "pKd": "below the threshold"}
    ]},
    {"target": "Inadl_4, Q8NI35", "sequence (Q8NI35 547-651)": "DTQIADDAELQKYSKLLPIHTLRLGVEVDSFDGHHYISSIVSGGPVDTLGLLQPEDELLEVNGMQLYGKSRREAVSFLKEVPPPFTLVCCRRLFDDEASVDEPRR", "assay": "holdup assay", "design": "key: below the threshold = too weak to quantify, mostly under pKd 3.1 to 4", "details": "plain residues with an end cap or a label only (N-terminal biotin on a linker: ado-ado)", "values": [
      {"binder": "SGDGKTSVWI", "note": "[GJC1, P36383]", "pKd": "below the threshold"}
    ]},
    {"target": "Inadl_8, Q8NI35", "sequence (Q8NI35 1425-1530)": "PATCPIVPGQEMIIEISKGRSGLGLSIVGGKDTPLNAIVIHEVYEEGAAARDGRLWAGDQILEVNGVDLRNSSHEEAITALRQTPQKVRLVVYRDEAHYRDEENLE", "assay": "holdup assay", "design": "key: below the threshold = too weak to quantify, mostly under pKd 3.1 to 4", "details": "plain residues with an end cap or a label only (N-terminal biotin on a linker: ado-ado)", "values": [
      {"binder": "SGDGKTSVWI", "note": "[GJC1, P36383]", "pKd": "below the threshold"}
    ]},
    {"target": "LDB3, O75112", "sequence (O75112 1-94)": "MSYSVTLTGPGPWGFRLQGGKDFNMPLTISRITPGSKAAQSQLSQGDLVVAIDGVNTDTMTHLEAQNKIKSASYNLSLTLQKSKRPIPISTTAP", "assay": "holdup assay", "design": "key: below the threshold = too weak to quantify, mostly under pKd 3.1 to 4", "details": "plain residues with an end cap or a label only (N-terminal biotin on a linker: ado-ado)", "values": [
      {"binder": "SGDGKTSVWI", "note": "[GJC1, P36383]", "pKd": "below the threshold"}
    ]},
    {"target": "T5, LIN7C, Q9NUP9", "T5 sequence (Q9NUP9 88-185, limits assumed, looked up)": "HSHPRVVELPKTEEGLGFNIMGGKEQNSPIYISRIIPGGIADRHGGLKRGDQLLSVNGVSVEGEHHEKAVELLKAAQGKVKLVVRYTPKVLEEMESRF", "assay": "holdup assay", "design": "key: below the threshold = too weak to quantify, mostly under pKd 3.1 to 4", "details": "plain residues with an end cap or a label only (N-terminal biotin on a linker: ado-ado)", "values": [
      {"binder": "SGDGKTSVWI", "note": "[GJC1, P36383]", "pKd": "below the threshold"}
    ]},
    {"target": "T6, LNX2_3, Q8N448", "T6 sequence (Q8N448 463-564, limits assumed, looked up)": "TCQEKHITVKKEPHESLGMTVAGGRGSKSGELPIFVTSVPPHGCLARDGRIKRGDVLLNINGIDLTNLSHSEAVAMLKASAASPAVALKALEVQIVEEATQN", "assay": "holdup assay", "design": "key: below the threshold = too weak to quantify, mostly under pKd 3.1 to 4", "details": "plain residues with an end cap or a label only (N-terminal biotin on a linker: ado-ado)", "values": [
      {"binder": "SGDGKTSVWI", "note": "[GJC1, P36383]", "pKd": "below the threshold"}
    ]},
    {"target": "T7, LRRC7, Q96NW7", "T7 sequence (Q96NW7 1440-1537, limits assumed, looked up)": "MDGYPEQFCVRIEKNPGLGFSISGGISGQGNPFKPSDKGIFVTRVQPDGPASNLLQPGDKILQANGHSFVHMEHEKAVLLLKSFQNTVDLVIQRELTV", "assay": "holdup assay", "design": "key: below the threshold = too weak to quantify, mostly under pKd 3.1 to 4", "details": "plain residues with an end cap or a label only (N-terminal biotin on a linker: ado-ado)", "values": [
      {"binder": "SGDGKTSVWI", "note": "[GJC1, P36383]", "pKd": 3.49}
    ]},
    {"target": "MAGI2_3, Q86UL8", "sequence (Q86UL8 600-682)": "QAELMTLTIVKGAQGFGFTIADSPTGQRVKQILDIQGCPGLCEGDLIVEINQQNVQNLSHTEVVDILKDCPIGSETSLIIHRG", "assay": "holdup assay", "design": "key: below the threshold = too weak to quantify, mostly under pKd 3.1 to 4", "details": "plain residues with an end cap or a label only (N-terminal biotin on a linker: ado-ado)", "values": [
      {"binder": "SGDGKTSVWI", "note": "[GJC1, P36383]", "pKd": "below the threshold"}
    ]},
    {"target": "MAGI2_4, Q86UL8", "sequence (Q86UL8 772-865)": "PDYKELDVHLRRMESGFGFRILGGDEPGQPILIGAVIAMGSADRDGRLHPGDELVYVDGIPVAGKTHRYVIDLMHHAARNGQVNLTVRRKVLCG", "assay": "holdup assay", "design": "key: below the threshold = too weak to quantify, mostly under pKd 3.1 to 4", "details": "plain residues with an end cap or a label only (N-terminal biotin on a linker: ado-ado)", "values": [
      {"binder": "SGDGKTSVWI", "note": "[GJC1, P36383]", "pKd": "below the threshold"}
    ]},
    {"target": "MAGI3_2, Q5TCQ9", "sequence (Q5TCQ9 398-503)": "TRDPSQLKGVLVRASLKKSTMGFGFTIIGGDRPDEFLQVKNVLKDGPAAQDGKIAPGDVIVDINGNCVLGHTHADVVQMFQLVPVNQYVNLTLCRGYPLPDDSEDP", "assay": "holdup assay", "design": "key: below the threshold = too weak to quantify, mostly under pKd 3.1 to 4", "details": "plain residues with an end cap or a label only (N-terminal biotin on a linker: ado-ado)", "values": [
      {"binder": "SGDGKTSVWI", "note": "[GJC1, P36383]", "pKd": "below the threshold"}
    ]},
    {"target": "NHERF4_1, Q86UT5-2", "sequence (Q86UT5 other isoform, or with tags, fused parts or gaps)": "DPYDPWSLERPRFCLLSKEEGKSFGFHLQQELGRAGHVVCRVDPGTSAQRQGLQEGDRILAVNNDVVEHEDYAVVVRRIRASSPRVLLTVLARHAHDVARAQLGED", "assay": "holdup assay", "design": "key: below the threshold = too weak to quantify, mostly under pKd 3.1 to 4", "details": "plain residues with an end cap or a label only (N-terminal biotin on a linker: ado-ado)", "values": [
      {"binder": "SGDGKTSVWI", "note": "[GJC1, P36383]", "pKd": 3.57}
    ]},
    {"target": "NHERF4_2, Q86UT5", "sequence (Q86UT5 220-308)": "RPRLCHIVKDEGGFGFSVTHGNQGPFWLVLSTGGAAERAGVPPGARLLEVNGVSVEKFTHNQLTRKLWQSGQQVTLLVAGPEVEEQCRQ", "assay": "holdup assay", "design": "key: below the threshold = too weak to quantify, mostly under pKd 3.1 to 4", "details": "plain residues with an end cap or a label only (N-terminal biotin on a linker: ado-ado)", "values": [
      {"binder": "SGDGKTSVWI", "note": "[GJC1, P36383]", "pKd": "below the threshold"}
    ]},
    {"target": "PARD3_3, Q8TEW0", "sequence (Q8TEW0 582-685)": "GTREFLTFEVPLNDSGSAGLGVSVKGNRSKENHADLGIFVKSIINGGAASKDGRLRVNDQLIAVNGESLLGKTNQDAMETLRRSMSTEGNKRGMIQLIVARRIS", "assay": "holdup assay", "design": "key: below the threshold = too weak to quantify, mostly under pKd 3.1 to 4", "details": "plain residues with an end cap or a label only (N-terminal biotin on a linker: ado-ado)", "values": [
      {"binder": "SGDGKTSVWI", "note": "[GJC1, P36383]", "pKd": 4.62}
    ]},
    {"target": "PDLIM1, O00151", "sequence (O00151 1-87)": "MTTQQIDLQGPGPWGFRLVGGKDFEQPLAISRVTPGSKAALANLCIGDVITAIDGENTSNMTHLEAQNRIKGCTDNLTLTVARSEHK", "assay": "holdup assay", "design": "key: below the threshold = too weak to quantify, mostly under pKd 3.1 to 4", "details": "plain residues with an end cap or a label only (N-terminal biotin on a linker: ado-ado)", "values": [
      {"binder": "SGDGKTSVWI", "note": "[GJC1, P36383]", "pKd": "below the threshold"}
    ]},
    {"target": "PTPN3, P26045", "sequence (P26045 505-587)": "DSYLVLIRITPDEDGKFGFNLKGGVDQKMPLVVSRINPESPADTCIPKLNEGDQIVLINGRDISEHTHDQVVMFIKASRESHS", "assay": "holdup assay", "design": "key: below the threshold = too weak to quantify, mostly under pKd 3.1 to 4", "details": "plain residues with an end cap or a label only (N-terminal biotin on a linker: ado-ado)", "values": [
      {"binder": "SGDGKTSVWI", "note": "[GJC1, P36383]", "pKd": 4.06}
    ]},
    {"target": "T8, RAPGEF6, Q8TEU7", "T8 sequence (Q8TEU7 525-625, limits assumed, looked up)": "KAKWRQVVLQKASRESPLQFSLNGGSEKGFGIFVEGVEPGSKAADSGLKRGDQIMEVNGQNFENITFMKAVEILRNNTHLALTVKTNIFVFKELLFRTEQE", "assay": "holdup assay", "design": "key: below the threshold = too weak to quantify, mostly under pKd 3.1 to 4", "details": "plain residues with an end cap or a label only (N-terminal biotin on a linker: ado-ado)", "values": [
      {"binder": "SGDGKTSVWI", "note": "[GJC1, P36383]", "pKd": "below the threshold"}
    ]},
    {"target": "SCRIB_2, Q14160", "sequence (Q14160 857-960)": "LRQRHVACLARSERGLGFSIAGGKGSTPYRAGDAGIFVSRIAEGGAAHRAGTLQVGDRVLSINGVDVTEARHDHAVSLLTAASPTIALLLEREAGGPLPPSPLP", "assay": "holdup assay", "design": "key: below the threshold = too weak to quantify, mostly under pKd 3.1 to 4", "details": "plain residues with an end cap or a label only (N-terminal biotin on a linker: ado-ado)", "values": [
      {"binder": "SGDGKTSVWI", "note": "[GJC1, P36383]", "pKd": "below the threshold"}
    ]},
    {"target": "T9, SHANK1, Q9Y566", "T9 sequence (Q9Y566 658-767, limits assumed, looked up)": "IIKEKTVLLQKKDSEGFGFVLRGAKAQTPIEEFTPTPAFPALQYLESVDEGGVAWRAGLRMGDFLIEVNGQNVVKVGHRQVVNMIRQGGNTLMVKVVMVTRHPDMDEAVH", "assay": "holdup assay", "design": "key: below the threshold = too weak to quantify, mostly under pKd 3.1 to 4", "details": "plain residues with an end cap or a label only (N-terminal biotin on a linker: ado-ado)", "values": [
      {"binder": "SGDGKTSVWI", "note": "[GJC1, P36383]", "pKd": 3.55}
    ]},
    {"target": "T10, TJP3_3, O95049", "T10 sequence (O95049 375-456, limits assumed, looked up)": "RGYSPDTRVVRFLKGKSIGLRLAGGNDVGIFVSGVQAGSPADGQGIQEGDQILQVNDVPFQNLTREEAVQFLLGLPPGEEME", "assay": "holdup assay", "design": "key: below the threshold = too weak to quantify, mostly under pKd 3.1 to 4", "details": "plain residues with an end cap or a label only (N-terminal biotin on a linker: ado-ado)", "values": [
      {"binder": "SGDGKTSVWI", "note": "[GJC1, P36383]", "pKd": 4.44}
    ]}
  ]
}
